The values below come from patent US20070197430A1, “Conjugates And Therapeutic Uses Thereof” (priority 2004, published 2007).

Assay [1] addresses T1, Bcl-w ΔC29 (Homo sapiens, UniProt Q92843).
T1 sequence (Q92843 1-164 limits assumed): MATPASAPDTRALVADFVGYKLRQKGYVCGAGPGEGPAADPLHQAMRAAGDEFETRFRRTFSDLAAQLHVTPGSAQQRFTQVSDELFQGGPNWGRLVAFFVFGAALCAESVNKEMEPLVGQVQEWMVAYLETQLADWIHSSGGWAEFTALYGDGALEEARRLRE
In words: Alphascreen GST competition assay with biotinylated Bim BH3-26 peptide. The class given is binding. Conditions: for binding affinity for Bcl-w ΔC29 compared to the linear 16-mer, in words: Examples 8 and 9; for decrease in binding affinity: relative to linear 16-mer.

The target in assay [2] is GST tagged Bcl w delta C29 protein (UniProt Q92843). In words: competition assay; competitor: biotinylated Bim BH3 peptide.
For assay [3] the target is unchanged. In words: competition assay; compared with the linear 16-mer.

Peptide text beside a SMILES is read from it.

As to `CC[C@H](C)[C@H](NC(=O)[C@H](CCCNC(=N)N)NC(=O)[C@H](CCCNC(=N)N)NC(=O)[C@H](CC(C)C)NC(=O)[C@H](CCC(=O)O)NC(=O)[C@H](CCC(N)=O)NC(=O)[C@H](C)NC(=O)[C@@H](NC(=O)[C@H](Cc1c[nH]c2ccccc12)NC(=O)[C@H](C)NC(C)=O)[C@@H](C)CC)C(=O)NCC(=O)N[C@@H](CC(=O)O)C(=O)N[C@@H](CCC(=O)O)C(=O)N[C@@H](Cc1ccccc1)C(=O)N[C@@H](CC(N)=O)C(=O)N[C@@H](C)C(N)=O` [O, Ac-AWIAQELRRJGDEFNA-NH2] (Ac-AWIAQELRRIGDEFNA-NH2), the “binding affinity for Bcl-w ΔC29 compared to the linear 16-mer, in words” value in assay [1] is listed as “drop in binding”.

`CC[C@H](C)[C@H](NC(C)=O)C(=O)N[C@@H](CCCNC(=N)N)C(=O)N[C@H](C(=O)N[C@@H](C)C(=O)N[C@@H](CCC(N)=O)C(=O)N[C@@H](CCC(=O)O)C(=O)N[C@@H](CC(C)C)C(=O)N[C@@H](CCCNC(=N)N)C(=O)N[C@@H](CCCNC(=N)N)C(=O)N[C@H](C(=O)NCC(=O)N[C@@H](CC(=O)O)C(=O)N[C@@H](CCC(=O)O)C(=O)N[C@@H](Cc1ccccc1)C(=O)N[C@@H](CC(N)=O)C(=O)N[C@@H](C)C(N)=O)[C@@H](C)CC)[C@@H](C)CC` [Q] (Ac-IRIAQELRRIGDEFNA-NH2): the “binding affinity for Bcl-w ΔC29 compared to the linear 16-mer, in words” value in assay [1] is “drop in binding”.

In assay [2], “Peptide G (constrained) Ac-QAIAQZLRRIGDZFNA-NH2” yielded an IC50 of 2.4 nM.

For `CC[C@H](C)[C@H](NC(C)=O)C(=O)N[C@@H](Cc1c[nH]c2ccccc12)C(=O)N[C@H](C(=O)N[C@@H](C)C(=O)N[C@@H](CCC(N)=O)C(=O)N[C@@H](CCC(=O)O)C(=O)N[C@@H](CC(C)C)C(=O)N[C@@H](CCCNC(=N)N)C(=O)N[C@@H](CCCNC(=N)N)C(=O)N[C@H](C(=O)NCC(=O)N[C@@H](CC(=O)O)C(=O)N[C@@H](CCC(=O)O)C(=O)N[C@@H](Cc1ccccc1)C(=O)N[C@@H](C)C(=O)N[C@@H](C)C(N)=O)[C@@H](C)CC)[C@@H](C)CC` [Peptide S] (Ac-IWIAQELRRIGDEFAA-NH2), the “binding affinity for Bcl-w ΔC29 compared to the linear 16-mer, in words” value in assay [1] is given as “only slight, if any, loss of binding affinity”.

In the case of `CC[C@H](C)[C@H](NC(C)=O)C(=O)N[C@@H](Cc1c[nH]c2ccccc12)C(=O)N[C@H](C(=O)N[C@@H](C)C(=O)N[C@@H](CCC(N)=O)C(=O)N[C@@H](CCC(=O)O)C(=O)N[C@@H](CC(C)C)C(=O)N[C@@H](CCCNC(=N)N)C(=O)N[C@@H](CCCNC(=N)N)C(=O)N[C@H](C(=O)NCC(=O)N[C@@H](CC(=O)O)C(=O)N[C@@H](CCC(=O)O)C(=O)N[C@@H](Cc1ccccc1)C(=O)N[C@@H](CC(N)=O)C(=O)N[C@@H](CC(N)=O)C(N)=O)[C@@H](C)CC)[C@@H](C)CC` [Peptide U] (Ac-IWIAQELRRIGDEFNN-NH2), the “decrease in binding affinity” value in assay [1] is reported as “two-fold”.

Regarding `CC[C@H](C)[C@H](NC(C)=O)C(=O)N[C@@H](Cc1c[nH]c2ccccc12)C(=O)N[C@H](C(=O)N[C@@H](C)C(=O)N[C@@H](CCC(N)=O)C(=O)N[C@@H](CCC(=O)O)C(=O)N[C@@H](C)C(=O)N[C@@H](CCCNC(=N)N)C(=O)N[C@@H](CCCNC(=N)N)C(=O)N[C@H](C(=O)NCC(=O)N[C@@H](CC(=O)O)C(=O)N[C@@H](CCC(=O)O)C(=O)N[C@@H](Cc1ccccc1)C(=O)N[C@@H](CC(N)=O)C(=O)N[C@@H](C)C(N)=O)[C@@H](C)CC)[C@@H](C)CC` [Peptide J] (Ac-IWIAQEARRIGDEFNA-NH2), the “decrease in binding affinity” value in assay [1] is “about 1000 fold”.

For `CC[C@H](C)[C@H](NC(C)=O)C(=O)N[C@@H](Cc1c[nH]c2ccccc12)C(=O)N[C@@H](C)C(=O)N[C@@H](C)C(=O)N[C@@H](CCC(N)=O)C(=O)N[C@@H](CCC(=O)O)C(=O)N[C@@H](CC(C)C)C(=O)N[C@@H](CCCNC(=N)N)C(=O)N[C@@H](CCCNC(=N)N)C(=O)N[C@H](C(=O)NCC(=O)N[C@@H](CC(=O)O)C(=O)N[C@@H](CCC(=O)O)C(=O)N[C@@H](Cc1ccccc1)C(=O)N[C@@H](CC(N)=O)C(=O)N[C@@H](C)C(N)=O)[C@@H](C)CC` [Peptide I] (Ac-IWAAQELRRIGDEFNA-NH2), in assay [1], the “binding affinity for Bcl-w ΔC29 compared to the linear 16-mer, in words” value is reported as “slight decrease in binding affinity” and the “decrease in binding affinity” value is listed as 100 fold.

With `CC[C@H](C)[C@H](NC(C)=O)C(=O)N[C@@H](Cc1ccccc1)C(=O)N[C@H](C(=O)N[C@@H](C)C(=O)N[C@@H](CCC(N)=O)C(=O)N[C@@H](CCC(=O)O)C(=O)N[C@@H](CC(C)C)C(=O)N[C@@H](CCCNC(=N)N)C(=O)N[C@@H](CCCNC(=N)N)C(=O)N[C@H](C(=O)NCC(=O)N[C@@H](CC(=O)O)C(=O)N[C@@H](CCC(=O)O)C(=O)N[C@@H](Cc1ccccc1)C(=O)N[C@@H](CC(N)=O)C(=O)N[C@@H](C)C(N)=O)[C@@H](C)CC)[C@@H](C)CC` [N] (Ac-IFIAQELRRIGDEFNA-NH2), the “binding affinity for Bcl-w ΔC29 compared to the linear 16-mer, in words” value in assay [1] is “drop in binding”.

Regarding `CC[C@H](C)[C@H](NC(C)=O)C(=O)N[C@@H](Cc1c[nH]c2ccccc12)C(=O)N[C@H](C(=O)N[C@@H](C)C(=O)N[C@@H](CCC(N)=O)C(=O)N[C@@H](CCC(=O)O)C(=O)N[C@@H](CC(C)C)C(=O)N[C@@H](CCCNC(=N)N)C(=O)N[C@@H](CCCNC(=N)N)C(=O)N[C@@H](C)C(=O)NCC(=O)N[C@@H](CC(=O)O)C(=O)N[C@@H](CCC(=O)O)C(=O)N[C@@H](Cc1ccccc1)C(=O)N[C@@H](CC(N)=O)C(=O)N[C@@H](C)C(N)=O)[C@@H](C)CC` [Peptide K] (Ac-IWIAQELRRAGDEFNA-NH2), in assay [1], the “decrease in binding affinity” value amounted to 3 fold.

Consider `CC[C@H](C)[C@H](NC(C)=O)C(=O)N[C@@H](Cc1c[nH]c2ccccc12)C(=O)N[C@H](C(=O)N[C@@H](C)C(=O)N[C@@H](CCC(N)=O)C(=O)N[C@@H](CCC(=O)O)C(=O)N[C@@H](CC(C)C)C(=O)N[C@@H](CCCNC(=N)N)C(=O)N[C@@H](CCCNC(=N)N)C(=O)N[C@H](C(=O)NCC(=O)N[C@@H](CC(=O)O)C(=O)N[C@@H](CCC(=O)O)C(=O)N[C@@H](C)C(=O)N[C@@H](CC(N)=O)C(=O)N[C@@H](C)C(N)=O)[C@@H](C)CC)[C@@H](C)CC` [Peptide L] (Ac-IWIAQELRRIGDEANA-NH2), for which the “decrease in binding affinity” value in assay [1] was 1,000 fold.

With `CC[C@H](C)[C@H](NC(C)=O)C(=O)N[C@@H](C)C(=O)N[C@H](C(=O)N[C@@H](C)C(=O)N[C@@H](CCC(N)=O)C(=O)N[C@@H](CCC(=O)O)C(=O)N[C@@H](CC(C)C)C(=O)N[C@@H](CCCNC(=N)N)C(=O)N[C@@H](CCCNC(=N)N)C(=O)N[C@H](C(=O)NCC(=O)N[C@@H](CC(=O)O)C(=O)N[C@@H](CCC(=O)O)C(=O)N[C@@H](Cc1ccccc1)C(=O)N[C@@H](CC(N)=O)C(=O)N[C@@H](C)C(N)=O)[C@@H](C)CC)[C@@H](C)CC` [P] (Ac-IAIAQELRRIGDEFNA-NH2), in assay [1], the “binding affinity for Bcl-w ΔC29 compared to the linear 16-mer, in words” value was “drop in binding”.

In turn, “Peptide T (linear) Ac-IWIAQELCitCitIGDEFNA-NH2” had an IC50 in assay [2] of 20 nM.

B1: Peptide M (linear) Ac-…-NH2 (peptide)
peptide: Ac-IWAAQEARRAGDEANA-NH2
In the case of B1, the fold decrease in binding affinity against the linear 16-mer in assay [3] worked out at 25000 fold. The IC50 in assay [2] stood at 64000 nM.

B2: Peptide J (linear) Ac-…-NH2 (peptide)
peptide: Ac-IWIAQEARRIGDEFNA-NH2
Regarding B2, the fold decrease in binding affinity against the linear 16-mer in assay [3] stood at 1000 fold. The molecule further displayed an IC50 in assay [2] of 3700 nM.

B3: Bmf peptide Ac-…-NH2 (peptide)
peptide: Ac-VQIARKLQAIADQFHR-NH2
In the case of B3, the 50% inhibitory concentration (IC50) in assay [2] worked out at 0.25 nM.

B4: Peptide H (linear) Ac-…-NH2 (peptide)
peptide: Ac-IWIAQQLRRIGDQFNA-NH2
For the molecule B4, the IC50 in assay [2] turned out to be 3.3 nM.

B5: Peptide U (linear) Ac-…-NH2 (peptide)
peptide: Ac-IWIAQELRRIGDEFNN-NH2
On to B5, for which the fold loss of binding affinity against the linear 16-mer in assay [3] turned out to be 2 fold. This molecule also registered an IC50 in assay [2] of 5.8 nM.

B6: Peptide P (linear) Ac-…-NH2 (peptide)
peptide: Ac-IAIAQELRRIGDEFNA-NH2
Molecule B6 showed an IC50 in assay [2] of 42 nM.

B7: Peptide S (linear) Ac-…-NH2 (peptide)
peptide: Ac-IWIAQELRRIGDEFAA-NH2
Take B7: the IC50 in assay [2] came out at 3.3 nM.

B8: Peptide L (linear) Ac-…-NH2 (peptide)
peptide: Ac-IWIAQELRRIGDEANA-NH2
As for B8, in assay [3], the fold decrease in binding affinity against the linear 16-mer worked out at 1000 fold. This molecule also had an IC50 in assay [2] of 3500 nM.

B9: Peptide K (linear) Ac-…-NH2 (peptide)
peptide: Ac-IWIAQELRRAGDEFNA-NH2
B9 returned a fold decrease in binding affinity against the linear 16-mer in assay [3] of 3 fold. This molecule also registered an IC50 in assay [2] of 7.3 nM.

B10: Peptide N (linear) Ac-…-NH2 (peptide)
peptide: Ac-IFIAQELRRIGDEFNA-NH2
As to B10, the IC50 in assay [2] was 11 nM.

B11: Peptide R (linear) Ac-…-NH2 (peptide)
peptide: Ac-IWIAQELRRIGDEFAN-NH2
For B11, in assay [3], the fold decrease in affinity against the linear 16-mer is 4 to 5 fold. In addition, in assay [2], the IC50 was 12 nM.

B12: Peptide Q (linear) Ac-…-NH2 (peptide)
peptide: Ac-IRIAQELRRIGDEFNA-NH2
B12 showed an IC50 in assay [2] of 17 nM.

B13: Puma peptide Ac-…-NH2 (peptide)
peptide: Ac-REIGAQLRRMADDLNA-NH2
In assay [2], B13 had an IC50 of 52 nM.

B14: Peptide I (linear) Ac-…-NH2 (peptide)
peptide: Ac-IWAAQELRRIGDEFNA-NH2
Molecule B14 returned a fold decrease in binding affinity against the linear 16-mer in assay [3] of 100 fold. For the same molecule, the 50% inhibitory concentration (IC50) in assay [2] worked out at 360 nM.
